Test results reported in US20030135878.

Legend:
[1] = target: T1, Wheat alpha-amylase/trypsin inhibitor (spot #3), P16851
T1 chain: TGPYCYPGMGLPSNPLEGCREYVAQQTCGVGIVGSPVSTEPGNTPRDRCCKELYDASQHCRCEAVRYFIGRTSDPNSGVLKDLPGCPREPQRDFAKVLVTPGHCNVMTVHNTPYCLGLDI

[2] = target: T2, Wheat alpha-amylase pI 5.23 inhibitor (spot #4), P01084
T2 chain: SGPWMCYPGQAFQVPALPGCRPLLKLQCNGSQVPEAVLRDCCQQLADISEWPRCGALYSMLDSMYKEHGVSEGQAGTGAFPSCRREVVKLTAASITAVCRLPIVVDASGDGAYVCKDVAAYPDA

[3] = target: wheat gliadin homolog of oat avenin (spot #2)
[4] = target: T3, Wheat alpha-amylase pI 6.66 inhibitor (spot #1), P01085
T3 chain: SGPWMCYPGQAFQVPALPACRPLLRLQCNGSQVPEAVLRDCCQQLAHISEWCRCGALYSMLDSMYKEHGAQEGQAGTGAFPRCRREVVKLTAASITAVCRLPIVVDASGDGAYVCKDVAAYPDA

B1: wheat thioredoxin h (WTRXh), 13.5-kDa protein encoded by the 384-bp wtrxh fragment (protein)
chain: MAASAATATATAAAVGAGEVISVHSLEQWTMQIEEANAAKKLVVIDFTASWCGPCRIMAPIFADLAKKFPAAVFLKVDVDELKPIAEQFSVEAMPTFLFMKEGDVKDRVVGAIKEELTTKVGLHAAQ
- redox state by mBBr/2D IEF/SDS-PAGE, homozygote overexpressing thioredoxin h vs. null segregant [1]: five proteins were observed to be more highly reduced in extracts of the homozygote (spots 1-5, FIG. 29)
- redox state by mBBr/2D IEF/SDS-PAGE, homozygote overexpressing thioredoxin h vs. null segregant [2]: five proteins were observed to be more highly reduced in extracts of the homozygote (spots 1-5, FIG. 29)
- redox state by mBBr/2D IEF/SDS-PAGE, homozygote overexpressing thioredoxin h vs. null segregant [3]: five proteins were observed to be more highly reduced in extracts of the homozygote (spots 1-5, FIG. 29)
- redox state by mBBr/2D IEF/SDS-PAGE, homozygote overexpressing thioredoxin h vs. null segregant [4]: five proteins were observed to be more highly reduced in extracts of the homozygote (spots 1-5, FIG. 29)
